According to article PMC10397247:
One block for each binder: values may come before it.

Experiments:
[1] = target: T1, Core_INNI-es_KKKE; assay: two-hybrid library CCmax; conditions: mean of both orientations;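 also: natural log of median RNA to DNA barcode read ratio; higher means stronger binding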
T1 chain: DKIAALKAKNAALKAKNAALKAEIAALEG

[2] = target: T2, Core_IINN-es_KEKE; assay: two-hybrid library CCmax; conditions: mean of both orientations;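 also: natural log of median RNA to DNA barcode read ratio; higher means stronger binding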
T2 chain: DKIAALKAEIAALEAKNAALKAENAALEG

[3] = target: T3, Core_IIII-es_KEEE; assay: two-hybrid library CCmax; conditions: mean of both orientations;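 also: natural log of median RNA to DNA barcode read ratio; higher means stronger binding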
T3 chain: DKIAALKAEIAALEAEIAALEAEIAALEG

[4] = target: T4, Core_NINI-es_KEKE; assay: two-hybrid library CCmax; conditions: mean of both orientations;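 also: natural log of median RNA to DNA barcode read ratio; higher means stronger binding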
T4 chain: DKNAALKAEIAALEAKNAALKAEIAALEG

[5] = target: T5, O9-bS; assay: two-hybrid library CCNG1;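 also: natural log of median RNA to DNA barcode read ratio; higher means stronger binding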
T5 chain: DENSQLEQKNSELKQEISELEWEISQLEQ

[6] = target: T6, O15-bS; assay: two-hybrid library CCNG1;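 also: natural log of median RNA to DNA barcode read ratio; higher means stronger binding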
T6 chain: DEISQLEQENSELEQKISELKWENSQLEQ

[7] = target: T7, O8-bS; assay: two-hybrid library CCNG1
T7 chain: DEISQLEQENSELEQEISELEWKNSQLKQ

[8] = target: T8, O10-bS; assay: two-hybrid library CCNG1
T8 chain: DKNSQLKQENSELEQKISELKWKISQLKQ

[9] = target: T9, O11-bS; assay: two-hybrid library CCNG1
T9 chain: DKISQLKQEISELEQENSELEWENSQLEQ

[10] = target: T10, O1-bS; assay: two-hybrid library CCNG1
T10 chain: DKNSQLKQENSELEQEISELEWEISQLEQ

[11] = target: T11, O14-bS; assay: two-hybrid library CCNG1
T11 chain: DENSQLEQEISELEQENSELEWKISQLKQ

[12] = target: T12, O2-bS; assay: two-hybrid library CCNG1
T12 chain: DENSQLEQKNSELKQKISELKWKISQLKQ

[13] = target: T13, O13-bS; assay: two-hybrid library CCNG1
T13 chain: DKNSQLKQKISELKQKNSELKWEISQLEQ

[14] = target: T14, O12-bS; assay: two-hybrid library CCNG1
T14 chain: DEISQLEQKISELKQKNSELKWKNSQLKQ

[15] = target: T15, O6-bS; assay: two-hybrid library CCNG1
T15 chain: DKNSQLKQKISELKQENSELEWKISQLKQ

[16] = target: T16, O16-bS; assay: two-hybrid library CCNG1
T16 chain: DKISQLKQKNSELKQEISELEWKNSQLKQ

[17] = target: T17, O5-bS; assay: two-hybrid library CCNG1
T17 chain: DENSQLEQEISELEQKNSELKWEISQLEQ

[18] = target: T18, O3-bS; assay: two-hybrid library CCNG1
T18 chain: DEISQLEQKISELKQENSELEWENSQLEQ

[19] = target: T19, O7-bS; assay: two-hybrid library CCNG1
T19 chain: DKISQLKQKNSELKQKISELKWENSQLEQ

[20] = target: T20, O4-bS; assay: two-hybrid library CCNG1
T20 chain: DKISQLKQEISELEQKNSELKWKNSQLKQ

Binder: DEIAALEAKIAALKAENAALEAKNAALKG [Core_IINN-es_EKEK]
interaction score [2]: 2.27

Binder: DEIAALEAKIAALKAKIAALKAKIAALKG [Core_IIII-es_EKKK]
interaction score [3]: 1.95

Binder: DKNSQLKQENSELEQEISELEWEISQLEQ [O1-bS]
interaction score [5]: -1.23 | interaction score [6]: -0.914 | interaction score [7]: -0.794 | interaction score [8]: -1.15 | interaction score [9]: -0.763 | interaction score [10]: -1.37 | interaction score [11]: -0.387 | interaction score [12]: 2.08 | interaction score [13]: -1.7 | interaction score [14]: -0.754 | interaction score [15]: -0.716 | interaction score [16]: -1.87 | interaction score [17]: -2 | interaction score [18]: -0.395 | interaction score [19]: -1.5 | interaction score [20]: -1.85

More lines, now with the values ahead:

interaction score [1]: 2.15
Binder: DEIAALEAENAALEAENAALEAKIAALKG [Core_INNI-es_EEEK]

interaction score [4]: 1.98
Binder: DENAALEAKIAALKAENAALEAKIAALKG [Core_NINI-es_EKEK]
